Literature values as cited in PMC6154725.

Target: Tyr7 (UniProt position 9, HHGWGYGQDDG)
Experiment: NMR
Details: solution, Zn enzyme, no ligand mentioned

Substance: Carbonic anhydrase II (HCA II) (Homo sapiens)
- pKa: ~7
